Measurements published in patent publication US20040253646A1, “Pre-mrna splicing screening assay” (priority 2001, published 2004).
Entries after “also recorded” stand apart in the source; their conditions may differ.

What was measured:
PLRG1 [1] = molecular target: T1, PLRG1 (Homo sapiens, UniProt O43660); assay: GST pull-down protein binding assay, CDC5L mutants with GST-PLRG1; details: about 0.2 nmole GST-PLRG1, FIG. 4
T1 construct: using full-length GST-PLRG1 in pull-down experiments with each of the respective CDC5L truncation mutants; made in house; host or cells: E. coli BL21(DE3), vector pGEX-4T1
T1 sequence (O43660 1-514): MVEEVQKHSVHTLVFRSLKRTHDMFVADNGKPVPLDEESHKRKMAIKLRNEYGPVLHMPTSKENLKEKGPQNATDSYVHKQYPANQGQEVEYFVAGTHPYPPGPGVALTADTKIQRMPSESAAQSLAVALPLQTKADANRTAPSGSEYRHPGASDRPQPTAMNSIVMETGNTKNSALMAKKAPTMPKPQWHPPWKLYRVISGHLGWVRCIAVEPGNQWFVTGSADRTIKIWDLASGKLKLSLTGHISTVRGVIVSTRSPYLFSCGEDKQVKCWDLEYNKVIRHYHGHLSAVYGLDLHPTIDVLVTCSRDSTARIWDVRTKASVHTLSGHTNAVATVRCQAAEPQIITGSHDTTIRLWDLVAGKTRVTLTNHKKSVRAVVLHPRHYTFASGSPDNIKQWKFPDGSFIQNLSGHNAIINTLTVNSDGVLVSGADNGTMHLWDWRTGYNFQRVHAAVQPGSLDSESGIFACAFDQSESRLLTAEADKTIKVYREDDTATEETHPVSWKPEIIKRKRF
Text: (§1) The in vitro transcription and translation experiments were done with the T7 or SP6 RNA polymerase transcription/translation systems that used rabbit reticulocyte lysate (TNT systems, Promega) and L-[^35S] methionine (Amersham, AG1094) to produce [^35S] labelled proteins according to the manufacturer's recommendations. Aliquots of these reactions were used for protein-protein interaction assays as described below.
(§2) About 0.2 nmole of the appropriate GST-fusion recombinant protein was mixed with an equimolar amount of hexahistidine tagged bacterially expressed protein or 8-10 μl of the in vitro translation reaction above and incubated in binding buffer (250 mM NaCl, 50 mM HEPES pH 7:9, 2% BSA) at room temperature for 15 minutes. The binding reaction was then added to 25 μl of glutathione sepharose beads or antibody bound protein-G sepharose and mixed at 4° C. for 1-2 hrs. The beads were washed 3-4 times in 1 ml of PBS/0.1% Triton X-100 and resuspended in 25 μl 2×SDS PAGE loading dye before heating at 70° C. for 10 minutes or 95° C. for 5 minutes. Bound proteins were separated on a 10% or 12% SDS PAGE gel after which the gel was fixed in 50% methanol/10% acetic acid for 30 minutes. The fixed gel was then soaked in a fluorographic reagent (Amplify, Amersham) for 30 minutes before drying. Protein bands were detected by autoradiography at −80° C. after 4-16 hrs. For antibody probing, the gels containing proteins from the antibody beads were treated as described above in the SDS-PAGE and Western blotting section.
(§3) Point mutations generating stop codons were inserted into the cDNAs at approximately 100 amino acids intervals by PCR using the QuikChange site directed mutagenesis kit (Stratagene) according to the manufacturer's instructions. The cDNAs were sequenced to confirm the presence of the appropriate mutations. Regions of the cDNAs involved in binding and overlapping regions were subcloned into the vectors pGEX-4T1 (Amersham-Pharmacia) or pET-30a (Novagen) for use in E. coli expression and protein-protein interaction assays.

PLRG1 [2] = molecular target: T2, PLRG1 (Homo sapiens, UniProt O43660); assay: as above; details: in vitro translated (FIG. 6A) or bacterially expressed His-tagged (FIG. 6B, 6C) proteins
T2 construct: using full-length GST-PLRG1 in pull-down experiments with each of the respective CDC5L truncation mutants; made in house; host or cells: E. coli BL21(DE3), vector pGEX-4T1
T2 sequence (O43660 257-396 limits assumed): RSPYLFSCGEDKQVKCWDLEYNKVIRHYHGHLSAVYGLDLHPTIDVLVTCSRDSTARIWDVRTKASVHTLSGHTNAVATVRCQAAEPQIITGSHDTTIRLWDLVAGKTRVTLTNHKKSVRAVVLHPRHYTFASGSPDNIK
Text: as §1, §2, §3

B1: ΔCDC5Lh: CDC5L carboxyl terminal mutant protein from region h, amino acids 602-800, expressed in E. coli (protein, UniProt Q99459 602-800, looked up, fragment)
chain: TVGFGTNNSEHITYLEHNPYEKFSKEELKKAQDVLVQEMEVVKQGMSHGELSSEAYNQVWEECYSQVLYLPGQSRYTRANLASKKDRIESLEKRLEINRGHMTTEAKRAAKMEKKMKILLGGYQSRAMGLMKQLNDLWDQIEQAHLELRTFEELKKHEDSAIPRRLECLKEDVQRQQEREKELQHRYADLLLEKETLKS
pull-down of in vitro translated CDC5L mutants by full-length GST-PLRG1 (PLRG1 [1]): pulled down; also recorded: higher binding efficiency to PLRG1 than ΔCDC5Lg
pull-down of CDC5L mutants by GST-ΔPLRG1f (amino acids 257-396) (PLRG1 [2]): will interact
